Like-named read-outs stand apart in the source and are kept apart here.
How the values were obtained:
[1] = type: binding; details: for Kd: FP, 1 nM F-STX, 25° C., errors S.D.; for ΔΔG: ΔΔG = RT ln(Kd mutant or XSxph/Kd RcSxph), T = 298K, FP with F-STX
[2] = type: binding; details: ITC, STX, 25° C.
Experimental: . […] In almost all mutants, binding affinity loss correlated with a reduction in enthalpy, consistent with a loss of interactions (Table S2). […]. […] Together, these three assays (FIGS. 1E and G) provide a robust and versatile suite of options for characterizing STX:Sxph interactions.
ITC measurements were performed at 25° C. using a MicroCal PEAQ-ITC calorimeter (Malvern Panalytical). […]. This STX stock was diluted with the SEC buffer to prepare 100 μM or 300 μM STX solutions having a final buffer composition of 135 mM NaCl, 9 mM HEPES, pH 7.4. […]. The calorimetric experiment settings were: reference power, 5 μcal/s; spacing between injections, 150 s; stir speed 750 rpm; and feedback mode, high. Data were analyzed using MicroCal PEAQ-ITC Analysis Software (Malvern Panalytical) using a single binding site model. The heat of dilution from titrations of 100 μM STX in 135 mM NaCl, 9 mM HEPES, pH 7.4 into 135 mM NaCl, 9 mM HEPES, pH 7.4 was subtracted from each experiment to correct the baseline.

Molecule | Kd [1] | ΔΔG [1] | Kd [2] | ΔG [2] | ΔH [2] | ΔS (cal mol^−1 K^−1) [2]
E540D: RcSxph STX binding pocket mutant E540D (protein) MAPTFQTALFFTIISLSFAAPNAKQVRWCAISDLEQKKCNDLVGSCNVPDITLVCVLRSSTEDCMTAIKDGQADAMFLDSGEVYEASKDPYNLKPIIAEPYSSNRDLQKCLKERQQALAKKMIGHYIPQCDEKGNYQPQQCHGSTGHCWCVNAMGEKISGTNTPPGQTRATCERHELPKCLKERQVALGGDEKVLGRFVPQCDEKGNYEPQQFHGSTGYSWCVNAIGEEIAGTKTPPGKIPATCQKHDLVTTCHYAVAMVKKSSAFQFNQLKGKRSCHSGVSKTDGWKALVTVLVEKKLLSWDGPAKESIQRAMSKFFSVSCIPGATQTNLCKQCKGEEGKNCKNSHDEPYYGNYGAFRCLKEDMGDVAFLRSTALSDEHSEVYELLCPDNTRKPLNKYKECNLGTVPAGTVVTRKISDKTEDINNFLMEAQKRQCKLFSSAHGKDLMFDDSTLQLALLSSEVDAFLYLGVKLFHAMKALTGDAHLPSKNKVRWCTINKLEKMKCDDWSAVSGGAIACTEASCPKGCVKQILKGEADAVKLEVQYMYEALMCGLLPAVDEYHNKDDFGPCKTPGSPYTDFGTLRAVALVKKSNKDINWNNIKGKKSCHTGVGDIAGWVIPVSLIRRQNDNSDIDSFFGESCAPGSDTKSNLCKLCIGDPKNSAANTKCSLSDKEAYYGNQGAFRCLVEKGDVAFVPHTVVFENTDGKNPAVWAKNLKSEDFELLCLDGSRAPVSNYKSCKLSGIPPPAIVTREESISDVVRIVANQQSLYGRKGFEKDMFQLFSSNKGNNLLFNDNTQCLITFDRQPKDIMEDYFGKPYYTTVYGASRSAMSSELISACTIKHC | 99.9 ± 25.1 nM | 1.54 kcal/mol | 68.9 ± 10.7 nM | -9.8 ± 0.1 kcal/mol | -16.3 ± 1.7 kcal/mol | −21.9 ± 5.7 cal mol^−1 K^−1
D794E: RcSxph STX binding pocket mutant D794E (protein) MAPTFQTALFFTIISLSFAAPNAKQVRWCAISDLEQKKCNDLVGSCNVPDITLVCVLRSSTEDCMTAIKDGQADAMFLDSGEVYEASKDPYNLKPIIAEPYSSNRDLQKCLKERQQALAKKMIGHYIPQCDEKGNYQPQQCHGSTGHCWCVNAMGEKISGTNTPPGQTRATCERHELPKCLKERQVALGGDEKVLGRFVPQCDEKGNYEPQQFHGSTGYSWCVNAIGEEIAGTKTPPGKIPATCQKHDLVTTCHYAVAMVKKSSAFQFNQLKGKRSCHSGVSKTDGWKALVTVLVEKKLLSWDGPAKESIQRAMSKFFSVSCIPGATQTNLCKQCKGEEGKNCKNSHDEPYYGNYGAFRCLKEDMGDVAFLRSTALSDEHSEVYELLCPDNTRKPLNKYKECNLGTVPAGTVVTRKISDKTEDINNFLMEAQKRQCKLFSSAHGKDLMFDDSTLQLALLSSEVDAFLYLGVKLFHAMKALTGDAHLPSKNKVRWCTINKLEKMKCDDWSAVSGGAIACTEASCPKGCVKQILKGEADAVKLEVQYMYEALMCGLLPAVEEYHNKDDFGPCKTPGSPYTDFGTLRAVALVKKSNKDINWNNIKGKKSCHTGVGDIAGWVIPVSLIRRQNDNSDIDSFFGESCAPGSDTKSNLCKLCIGDPKNSAANTKCSLSDKEAYYGNQGAFRCLVEKGDVAFVPHTVVFENTDGKNPAVWAKNLKSEDFELLCLDGSRAPVSNYKSCKLSGIPPPAIVTREESISDVVRIVANQQSLYGRKGFEKDMFQLFSSNKGNNLLFNDNTQCLITFDRQPKDIMEEYFGKPYYTTVYGASRSAMSSELISACTIKHC | 1070 ± 69.3 nM | 2.94 kcal/mol | 312.5 ± 2.9 nM | -8.9 ± 0.1 kcal/mol | -11.8 ± 0.0 kcal/mol | −8.9 ± 0.1 cal mol^−1 K^−1
Y795A: RcSxph STX binding pocket mutant Y795A (protein) MAPTFQTALFFTIISLSFAAPNAKQVRWCAISDLEQKKCNDLVGSCNVPDITLVCVLRSSTEDCMTAIKDGQADAMFLDSGEVYEASKDPYNLKPIIAEPYSSNRDLQKCLKERQQALAKKMIGHYIPQCDEKGNYQPQQCHGSTGHCWCVNAMGEKISGTNTPPGQTRATCERHELPKCLKERQVALGGDEKVLGRFVPQCDEKGNYEPQQFHGSTGYSWCVNAIGEEIAGTKTPPGKIPATCQKHDLVTTCHYAVAMVKKSSAFQFNQLKGKRSCHSGVSKTDGWKALVTVLVEKKLLSWDGPAKESIQRAMSKFFSVSCIPGATQTNLCKQCKGEEGKNCKNSHDEPYYGNYGAFRCLKEDMGDVAFLRSTALSDEHSEVYELLCPDNTRKPLNKYKECNLGTVPAGTVVTRKISDKTEDINNFLMEAQKRQCKLFSSAHGKDLMFDDSTLQLALLSSEVDAFLYLGVKLFHAMKALTGDAHLPSKNKVRWCTINKLEKMKCDDWSAVSGGAIACTEASCPKGCVKQILKGEADAVKLEVQYMYEALMCGLLPAVEEYHNKDDFGPCKTPGSPYTDFGTLRAVALVKKSNKDINWNNIKGKKSCHTGVGDIAGWVIPVSLIRRQNDNSDIDSFFGESCAPGSDTKSNLCKLCIGDPKNSAANTKCSLSDKEAYYGNQGAFRCLVEKGDVAFVPHTVVFENTDGKNPAVWAKNLKSEDFELLCLDGSRAPVSNYKSCKLSGIPPPAIVTREESISDVVRIVANQQSLYGRKGFEKDMFQLFSSNKGNNLLFNDNTQCLITFDRQPKDIMEDAFGKPYYTTVYGASRSAMSSELISACTIKHC | 8.4 ± 2.1 nM | 0.08 kcal/mol | – | – | – | –
Q787A: RcSxph STX binding pocket mutant Q787A (protein) MAPTFQTALFFTIISLSFAAPNAKQVRWCAISDLEQKKCNDLVGSCNVPDITLVCVLRSSTEDCMTAIKDGQADAMFLDSGEVYEASKDPYNLKPIIAEPYSSNRDLQKCLKERQQALAKKMIGHYIPQCDEKGNYQPQQCHGSTGHCWCVNAMGEKISGTNTPPGQTRATCERHELPKCLKERQVALGGDEKVLGRFVPQCDEKGNYEPQQFHGSTGYSWCVNAIGEEIAGTKTPPGKIPATCQKHDLVTTCHYAVAMVKKSSAFQFNQLKGKRSCHSGVSKTDGWKALVTVLVEKKLLSWDGPAKESIQRAMSKFFSVSCIPGATQTNLCKQCKGEEGKNCKNSHDEPYYGNYGAFRCLKEDMGDVAFLRSTALSDEHSEVYELLCPDNTRKPLNKYKECNLGTVPAGTVVTRKISDKTEDINNFLMEAQKRQCKLFSSAHGKDLMFDDSTLQLALLSSEVDAFLYLGVKLFHAMKALTGDAHLPSKNKVRWCTINKLEKMKCDDWSAVSGGAIACTEASCPKGCVKQILKGEADAVKLEVQYMYEALMCGLLPAVEEYHNKDDFGPCKTPGSPYTDFGTLRAVALVKKSNKDINWNNIKGKKSCHTGVGDIAGWVIPVSLIRRQNDNSDIDSFFGESCAPGSDTKSNLCKLCIGDPKNSAANTKCSLSDKEAYYGNQGAFRCLVEKGDVAFVPHTVVFENTDGKNPAVWAKNLKSEDFELLCLDGSRAPVSNYKSCKLSGIPPPAIVTREESISDVVRIVANQQSLYGRKGFEKDMFQLFSSNKGNNLLFNDNTQCLITFDRAPKDIMEDYFGKPYYTTVYGASRSAMSSELISACTIKHC | 11.3 ± 1.1 nM | 0.25 kcal/mol | – | – | – | –
OsSxph: Oophaga sylvatica (Little devil poison frog) saxiphilin, SEQ ID NO: 5 (protein, listed as Oophaga sylvatica) MRMTLQVLLCLCLLVLSSAAPNSRNVRWCVTSDTEEQKCNDLVTSCHVDEILLICVKKSSKEDCVRAISNGEADAISLDSKDVYKASLDPFNLKPIMTEAYSESEQTPCMRHRQSVLGGKKMIIGAFVPKCDEKGNYVPKQCHDSTGFCWCLNENGEEIEGTRTPPGNSGLTCENKANKPPCLKERQKLLSAKPSPAVFVPECDEKGNYRPEQSHVYSWCVDEYGEEVLGSRTFPGKPPKPCEASGETPCIKERNKVLSAAEPLPGAFVPDCDEKGYFSPLQFHGSTGHSWCVTKNGEEIKGTRTRPGQTPPTCDVPAPATLHYAVAVVKKSSSFQLDQLKGKRSCHSAVGEAAGWVAPLNVLLKKKFLLWEEPEQKSTEKVASEIFSASCAAGAQEANLCEQCAGQEDKCTRGPGEPYYGDEGAIRCLRDDKGDVAFVEDTALTGQYSDNFELLCPDNTRRPLSQYKICNFGSVPRHAVVTRSTGDKMKEITEYLLQAQKKECKLFSSTHGKDLLFEDTTSALIALPSGMDTFLFLGPDLFNGMKTLNGAHPPRVKQKIRWCPQNKNEKKKCDDWSSVSGGSIKCTEPSSALECIKMILKDEADAVNLDAEHAYTALKCGLLPSLEEYRNKDDLIVCQIPGAEYSEFGSYRIVALVKKTDKDITWNNLQGKKSCHTHVGDMIGWNIPVYLISKKTKNCDLGSYFSQSCAPGSPIDSNLCKLCIGDPQNTEANTKCSLSDKEAYYGNEGAVRCLVETGDVAFVPHTAVFENTDGKNPALWAKDLKSTDFELLCPDGSRAPVSDYKKCKLSGIANHVTVTRPESVKDVVRITQNQESLYGRTGSQKDIFQMFSSSYGQNLLFNDRTQCLFEFDRMLDRDIMDDYLGKPFHKHLMSDNDCLPKSALATACSFHH | 0.8 ± 0.5 nM | -1.32 kcal/mol | – | – | – | –

From patent US20260034194A1, “PHARMACEUTICAL COMPOSITIONS AND METHODS OF TREATING PSP” (priority 2022, published 2026)
